The source of these data is patent publication US20200024360A1 (Janssen / Centocor, published 2020).

The target of assay [1] is T1, Cynomolgous monkey PSMA, full length (Macaca fascicularis, UniProt Q04609 1-750 (human entry)).
T1 construct: On transfected HEK293F cells; also called cyno PSMA; EHH56646.1
T1 chain: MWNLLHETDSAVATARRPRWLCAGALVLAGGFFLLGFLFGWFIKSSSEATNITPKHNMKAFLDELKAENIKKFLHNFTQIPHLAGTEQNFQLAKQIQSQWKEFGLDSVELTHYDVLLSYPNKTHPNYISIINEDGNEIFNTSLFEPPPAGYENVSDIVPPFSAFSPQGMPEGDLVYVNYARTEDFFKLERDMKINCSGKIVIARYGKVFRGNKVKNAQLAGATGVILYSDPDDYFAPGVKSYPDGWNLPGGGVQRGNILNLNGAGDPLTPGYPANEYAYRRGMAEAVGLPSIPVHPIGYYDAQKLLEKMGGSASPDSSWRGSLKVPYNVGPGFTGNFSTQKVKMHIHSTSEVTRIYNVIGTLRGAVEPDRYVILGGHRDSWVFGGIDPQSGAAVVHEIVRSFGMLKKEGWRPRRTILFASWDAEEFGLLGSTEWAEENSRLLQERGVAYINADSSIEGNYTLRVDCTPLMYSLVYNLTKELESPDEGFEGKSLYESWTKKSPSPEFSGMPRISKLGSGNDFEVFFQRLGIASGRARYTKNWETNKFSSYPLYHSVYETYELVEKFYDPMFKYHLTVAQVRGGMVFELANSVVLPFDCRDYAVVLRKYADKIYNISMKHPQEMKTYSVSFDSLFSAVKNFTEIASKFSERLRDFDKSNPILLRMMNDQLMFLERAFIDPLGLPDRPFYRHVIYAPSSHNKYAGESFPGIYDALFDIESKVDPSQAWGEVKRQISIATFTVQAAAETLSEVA
The assay can be described thus: FACS, whole cell binding, cyno PSMA HEK. How it is done: (§1) PSMA×CD3 bispecific antibodies were tested for binding to PSMA positive cell lines LNCAP, human PSMA-HEK, Chimpanzee-PSMA-HEK and Cynomolgous monkey PSMA-HEK. To assess the binding capabilities of the PSMA bispecific antibodies, the cell-binding assay was utilized (described previously). Briefly, PSMA expressing tumor cells are bound by bispecific antibodies at known concentrations and the bound antibody is detected by an anti-human kappa light chain PE conjugated detection reagent (Invitrogen). The Mean Fluorescents Intensity (MFI) is the measure of bound bispecific antibody. The MFI is converted to a relative EC₅₀. EC₅₀ is a commonly used dose-response curve, where the half maximal effective concentration or the EC₅₀ point is defined as the inflection point of the curve. EC₅₀ s were determined by measuring cell bound bispecific and known concentrations. […] The dose response curves were then diluted down to that of background or no bispecific binding. The inflection point of this curve reflects the EC₅₀ point. The calculated EC₅₀ is determined by taking the ug/ml amount of bispecific antibody at the EC₅₀ point and converting it to a molarity value based on the MW of the bispecific antibody. Bispecific antibodies were normalized for protein concentration and then incubated with the same number of cells expressing either human or cyno PSMA. The MFI at each concentration was collected by flow cytometry and plotted as a function of concentration. Data was transformed via log 10 and then plotted. Nonlinear regression of binding curves was done to determine EC₅₀ s. These relative values were used for ranking PSMA binding to target cells.

For assay [2], the target named is T2, chimpanzee PSMA, full length (Pan troglodytes, UniProt Q04609 1-750 (human entry)).
T2 construct: On transfected HEK293F cells; also called chimp PSMA; H2Q3K5_PANTR
T2 chain: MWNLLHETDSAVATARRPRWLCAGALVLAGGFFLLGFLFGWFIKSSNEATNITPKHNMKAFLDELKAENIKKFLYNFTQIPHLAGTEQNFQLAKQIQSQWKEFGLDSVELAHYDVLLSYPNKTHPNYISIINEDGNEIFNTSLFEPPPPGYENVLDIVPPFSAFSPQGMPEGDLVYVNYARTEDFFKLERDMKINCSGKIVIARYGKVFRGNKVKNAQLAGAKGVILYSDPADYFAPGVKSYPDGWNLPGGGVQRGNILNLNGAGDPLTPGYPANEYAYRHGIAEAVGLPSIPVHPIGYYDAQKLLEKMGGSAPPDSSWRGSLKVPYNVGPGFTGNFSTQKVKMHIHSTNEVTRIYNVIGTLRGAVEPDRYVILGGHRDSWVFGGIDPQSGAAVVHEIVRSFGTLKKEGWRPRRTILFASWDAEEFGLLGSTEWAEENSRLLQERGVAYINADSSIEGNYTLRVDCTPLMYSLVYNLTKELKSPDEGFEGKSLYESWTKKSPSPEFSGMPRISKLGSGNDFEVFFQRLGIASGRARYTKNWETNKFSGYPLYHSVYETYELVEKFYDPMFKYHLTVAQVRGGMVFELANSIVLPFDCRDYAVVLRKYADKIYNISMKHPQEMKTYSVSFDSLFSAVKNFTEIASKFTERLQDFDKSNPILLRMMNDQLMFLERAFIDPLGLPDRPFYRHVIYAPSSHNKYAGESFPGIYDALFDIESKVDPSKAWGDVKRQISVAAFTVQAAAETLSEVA
The assay can be described thus: FACS, whole cell binding, chimp PSMA HEK. On the procedure:
as §1
On the technique in general: Flow cytometry measures light scatter and fluorescence of single cells or particles in a stream.

B1: PS3B20 (bispecific antibody, human IgG4 S228P, kappa, lambda, F234A L235A)
heavy 1: not shown
light 1: not shown
heavy 2: EVQLVESGGGLVQPGGSLRLSCAASGFTFNTYAMNWVRQAPGKGLEWVARIRSKYNNYATYYAASVKGRFTISRDDSKNSLYLQMNSLKTEDTAVYYCARHGNFGNSYVSWFAYWGQGTLVTVSSASTKGPSVFPLAPCSRSTSESTAALGCLVKDYFPEPVTVSWNSGALTSGVHTFPAVLQSSGLYSLSSVVTVPSSSLGTKTYTCNVDHKPSNTKVDKRVESKYGPPCPPCPAPEAAGGPSVFLFPPKPKDTLMISRTPEVTCVVVDVSQEDPEVQFNWYVDGVEVHNAKTKPREEQFNSTYRVVSVLTVLHQDWLNGKEYKCKVSNKGLPSSIEKTISKAKGQPREPQVYTLPPSQEEMTKNQVSLTCLVKGFYPSDIAVEWESNGQPENNYKTTPPVLDSDGSFLLYSKLTVDKSRWQEGNVFSCSVMHEALHNHYTQKSLSLSLGK
light 2: QTVVTQEPSLTVSPGGTVTLTCRSSTGAVTTSNYANWVQQKPGQAPRGLIGGTNKRAPGTPARFSGSLLGGKAALTLSGVQPEDEAEYYCALWYSNLWVFGGGTKLTVLGQPKAAPSVTLFPPSSEELQANKATLVCLISDFYPGAVTVAWKADSSPVKAGVETTTPSKQSNNKYAASSYLSLTPEQWKSHRSYSCQVTHEGSTVEKTVAPTECS
notes: IgG4 PAA; PSMA arm chains first, then CD3 arm (F405L, R409K); also called PSMB120 x CD3B219
On to B1, for which the values for the EC50 in assay [1] and in assay [2] were 2 µg/mL and 3.33 µg/mL, respectively.

B2: PS3B28 (bispecific antibody, human IgG4 S228P, kappa, lambda, F234A L235A)
heavy 1: not shown
light 1: not shown
heavy 2: EVQLVESGGGLVQPGGSLRLSCAASGFTFNTYAMNWVRQAPGKGLEWVARIRSKYNNYATYYAASVKGRFTISRDDSKNSLYLQMNSLKTEDTAVYYCARHGNFGNSYVSWFAYWGQGTLVTVSSASTKGPSVFPLAPCSRSTSESTAALGCLVKDYFPEPVTVSWNSGALTSGVHTFPAVLQSSGLYSLSSVVTVPSSSLGTKTYTCNVDHKPSNTKVDKRVESKYGPPCPPCPAPEAAGGPSVFLFPPKPKDTLMISRTPEVTCVVVDVSQEDPEVQFNWYVDGVEVHNAKTKPREEQFNSTYRVVSVLTVLHQDWLNGKEYKCKVSNKGLPSSIEKTISKAKGQPREPQVYTLPPSQEEMTKNQVSLTCLVKGFYPSDIAVEWESNGQPENNYKTTPPVLDSDGSFLLYSKLTVDKSRWQEGNVFSCSVMHEALHNHYTQKSLSLSLGK
light 2: QTVVTQEPSLTVSPGGTVTLTCRSSTGAVTTSNYANWVQQKPGQAPRGLIGGTNKRAPGTPARFSGSLLGGKAALTLSGVQPEDEAEYYCALWYSNLWVFGGGTKLTVLGQPKAAPSVTLFPPSSEELQANKATLVCLISDFYPGAVTVAWKADSSPVKAGVETTTPSKQSNNKYAASSYLSLTPEQWKSHRSYSCQVTHEGSTVEKTVAPTECS
notes: IgG4 PAA; PSMA arm chains first, then CD3 arm (F405L, R409K); also called PSMB128 x CD3B219
Consider B2, for which the EC50 (usually the concentration at which the effect is half-maximal) stood at 0.688 µg/mL in assay [1] and 1.01 µg/mL in assay [2].

B3: PS3B24 (bispecific antibody, human IgG4 S228P, kappa, lambda, F234A L235A)
heavy 1: not shown
light 1: not shown
heavy 2: EVQLVESGGGLVQPGGSLRLSCAASGFTFNTYAMNWVRQAPGKGLEWVARIRSKYNNYATYYAASVKGRFTISRDDSKNSLYLQMNSLKTEDTAVYYCARHGNFGNSYVSWFAYWGQGTLVTVSSASTKGPSVFPLAPCSRSTSESTAALGCLVKDYFPEPVTVSWNSGALTSGVHTFPAVLQSSGLYSLSSVVTVPSSSLGTKTYTCNVDHKPSNTKVDKRVESKYGPPCPPCPAPEAAGGPSVFLFPPKPKDTLMISRTPEVTCVVVDVSQEDPEVQFNWYVDGVEVHNAKTKPREEQFNSTYRVVSVLTVLHQDWLNGKEYKCKVSNKGLPSSIEKTISKAKGQPREPQVYTLPPSQEEMTKNQVSLTCLVKGFYPSDIAVEWESNGQPENNYKTTPPVLDSDGSFLLYSKLTVDKSRWQEGNVFSCSVMHEALHNHYTQKSLSLSLGK
light 2: QTVVTQEPSLTVSPGGTVTLTCRSSTGAVTTSNYANWVQQKPGQAPRGLIGGTNKRAPGTPARFSGSLLGGKAALTLSGVQPEDEAEYYCALWYSNLWVFGGGTKLTVLGQPKAAPSVTLFPPSSEELQANKATLVCLISDFYPGAVTVAWKADSSPVKAGVETTTPSKQSNNKYAASSYLSLTPEQWKSHRSYSCQVTHEGSTVEKTVAPTECS
notes: IgG4 PAA; PSMA arm chains first, then CD3 arm (F405L, R409K); also called PSMB124 x CD3B219
With B3, the EC50 was found to be 18.2 µg/mL in assay [1] and 1.1 µg/mL in assay [2].
